Data taken from article PMC12117459.

Assays:
Assay in all cases: NMR
Lys56 = details: 25 °C; <60 mM (no added salt; only HCl/NaOH used for pH adjustment); none (water without buffer); folded dimer, free protein, about 1.5 mM
Lys45 = details: 25 °C; <60 mM (no added salt; only HCl/NaOH used for pH adjustment); none (water without buffer); folded dimer, free protein, about 1.5 mM
Lys30 = details: 25 °C; <60 mM (no added salt; only HCl/NaOH used for pH adjustment); none (water without buffer); folded dimer, free protein, about 1.5 mM
Lys55 = details: 25 °C; <60 mM (no added salt; only HCl/NaOH used for pH adjustment); none (water without buffer); folded dimer, free protein, about 1.5 mM
Lys6 = details: 25 °C; <60 mM (no added salt; only HCl/NaOH used for pH adjustment); none (water without buffer); folded dimer, free protein, about 1.5 mM
Tyr16 = details: 25 °C; <60 mM (no added salt; only HCl/NaOH used for pH adjustment); none (water without buffer); folded dimer, free protein, about 1.5 mM
Lys53 = details: 25 °C; <60 mM (no added salt; only HCl/NaOH used for pH adjustment); none (water without buffer); folded dimer, free protein, about 1.5 mM
Tyr47 = details: folded dimer
Lys12 = details: 25 °C; <60 mM (no added salt; only HCl/NaOH used for pH adjustment); none (water without buffer); folded dimer, free protein, about 1.5 mM
Lys32 = details: 25 °C; <60 mM (no added salt; only HCl/NaOH used for pH adjustment); none (water without buffer); folded dimer, free protein, about 1.5 mM
Tyr5 = details: 25 °C; <60 mM (no added salt; only HCl/NaOH used for pH adjustment); none (water without buffer); folded dimer, free protein, about 1.5 mM
His31 = His31 (UniProt position 31, TIGIGHLLTKS); details: cited from earlier work

Substance | pKa (Lys56) | pKa (Lys45) | pKa (Lys30) | pKa (Lys55) | pKa (Lys6) | pKa (Tyr16) | pKa (Lys53) | pKa (Tyr47; 25 °C, <60 mM (no added salt; only HCl/NaOH used for pH adjustment), none (water without buffer), free protein, about 1.5 mM) | pKa (Tyr47; cited from earlier work) | pKa (Lys12) | pKa (Lys32) | pKa (Tyr5) | pKa (His31)
Ribbon-helix-helix (rhh) protein ORF56 from plasmid pRN1 (Sulfolobus islandicus (plasmid pRN1)) | 10.96 ± 0.03 | 11.27 ± 0.02 | 10.86 ± 0.01 | 11.08 ± 0.04 | 10.79 ± 0.01 | 9.85 ± 0.01 | 10.25 ± 0.02 | >13.7 | above pH 13 | 10.54 ± 0.01 | 10.48 ± 0.01 | 9.85 ± 0.01 | –
T4 lysozyme (Enterobacteria phage T4 (Tequatrovirus T4)) | – | – | – | – | – | – | – | – | – | – | – | – | 9
